Results reported in article PMC3364340.

Assays:
[1] = target: TrkA, on human TF1 erythroleukemia cells (human (endogenous in TF1)) (UniProt P04629)
[2] = target: p75NTR, endogenous in rat primary hippocampal neurons (rat (endogenous in rat hippocampal neurons)) (UniProt P07174)
Sequence of UniProt P07174 (P07174 30-425): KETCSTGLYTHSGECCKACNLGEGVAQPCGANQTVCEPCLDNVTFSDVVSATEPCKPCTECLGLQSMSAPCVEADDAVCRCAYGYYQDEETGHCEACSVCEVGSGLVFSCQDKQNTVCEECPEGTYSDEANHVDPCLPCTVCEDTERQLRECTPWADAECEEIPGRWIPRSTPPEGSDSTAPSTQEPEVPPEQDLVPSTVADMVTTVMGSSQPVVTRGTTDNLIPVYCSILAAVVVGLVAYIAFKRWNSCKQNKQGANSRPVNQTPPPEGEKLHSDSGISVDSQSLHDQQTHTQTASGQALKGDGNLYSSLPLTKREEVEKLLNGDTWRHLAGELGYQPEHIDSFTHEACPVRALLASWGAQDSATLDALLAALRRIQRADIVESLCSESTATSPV

Sequence of UniProt P04629 (P04629 33-796): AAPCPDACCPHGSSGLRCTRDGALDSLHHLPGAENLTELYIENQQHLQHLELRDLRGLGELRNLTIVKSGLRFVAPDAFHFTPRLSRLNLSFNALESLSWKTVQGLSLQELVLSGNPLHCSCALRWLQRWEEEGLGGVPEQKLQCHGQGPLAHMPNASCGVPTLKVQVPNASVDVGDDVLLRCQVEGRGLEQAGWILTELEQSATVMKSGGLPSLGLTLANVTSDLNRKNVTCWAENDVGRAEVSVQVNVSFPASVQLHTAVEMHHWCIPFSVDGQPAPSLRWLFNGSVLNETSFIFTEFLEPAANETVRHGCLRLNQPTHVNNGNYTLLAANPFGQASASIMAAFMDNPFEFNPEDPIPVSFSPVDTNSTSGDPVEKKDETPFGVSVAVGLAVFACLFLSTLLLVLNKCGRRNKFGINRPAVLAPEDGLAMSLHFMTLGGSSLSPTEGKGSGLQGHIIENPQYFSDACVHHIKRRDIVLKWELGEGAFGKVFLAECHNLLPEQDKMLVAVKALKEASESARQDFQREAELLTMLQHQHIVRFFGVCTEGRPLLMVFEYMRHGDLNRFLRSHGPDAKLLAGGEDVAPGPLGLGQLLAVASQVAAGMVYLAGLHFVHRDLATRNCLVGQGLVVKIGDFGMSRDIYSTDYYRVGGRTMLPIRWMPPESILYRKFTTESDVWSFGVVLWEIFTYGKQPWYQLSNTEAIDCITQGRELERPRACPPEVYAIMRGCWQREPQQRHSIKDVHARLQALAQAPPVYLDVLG

Row | proliferative index, proliferation of human TF1 cells expressing TrkA [1] | c-jun Ser63 phosphorylation in hippocampal neurons (Western blot, site-specific anti-phospho c-jun antibody), reduction with respect to hNGF or hNGFP61S [2] | Substance
1 | 1.68 ng/mL |  | hNGFP61S, human NGF tagged with the single-residue epitope P61S (ligand)
2 | 1.89 ng/mL | 30% | hNGFP61S/R100E, double mutant of human NGF ("painless" hNGF) (ligand)
3 | 1.28 ng/mL | 30% | hNGFR100E, human NGF mutant R100E (from UniProt P01138 122-241) (ligand)
